Patent US5820866

Columns and labels:
[1] = target: IA^b -Ea protein bound by added cOVA peptide (murine; chicken) (UniProt P01012)
[2] = target: IA^b -Ea protein bound by added cOVA peptide (murine; chicken) (UniProt P01012); remark: listed apart in the source
[3] = target: IA^d -OVA protein (soluble IA^d αβ dimer with cOVA peptide (327-339) joined by a linker to IAβ^d) (murine)
[4] = target: IE^kd -MCC protein (soluble IE^kd αβ dimer with MCC peptide (91-103) joined by a linker to IEβ^k) (murine)
[5] = target: IA^b -Ea protein (membrane-bound IA^b with IEα^d peptide (56-73) joined by a linker to IAβ^b) (murine); experiment: inferred from IL-2 production by BO.97.10 with M12.C3 cells and added cOVA peptide
[6] = target: IA^b protein (membrane-bound, without covalent peptide); experiment: inferred from IL-2 production by BO.97.10 with fibroblasts and added cOVA peptide
[7] = target: IA^b protein (membrane-bound, without covalent peptide); experiment: inferred from IL-2 production by BO.97.10 with M12.C3 cells and added cOVA peptide

BO.97.10 T hybridoma cells (TCR)
IL-2 production in the presence of cOVA peptide (fibroblasts) (fold less IL-2 production) [1]: 10 | IL-2 production in the presence of cOVA peptide (M12.C3 cells) (fold less IL-2 production) [2]: 10

thrombin (enzyme)
digestion of the complex as assessed by SDS-PAGE [3]: > 80% | digestion of the complex as assessed by SDS-PAGE [4]: > 80%

cOVA Peptide (327-339) (from UniProt P01012)
percent of the IA^b -Ea protein bound by cOVA peptide [5]: 10%

IEα^d Peptide (56-73)
percent of the IA^b -Ea protein bound by IEα^d peptide [6]: 90% | percent of the IA^b -Ea protein with IEα^d bound to the binding site [7]: 90%
